The source of these data is paper PMC8378520 (Nature structural & molecular biology, 2021).

Sequences and labels used below:
B3: FANCL (enzyme, human, UniProt Q9NW38-1 1-375, looked up)
chain: MAVTEASLLRQCPLLLPQNRSKTVYEGFISAQGRDFHLRIVLPEDLQLKNARLLCSWQLRTILSGYHRIVQQRMQHSPDLMSFMMELKMLLEVALKNRQELYALPPPPQFYSSLIEEIGTLGWDKLVYADTCFSTIKLKAEDASGREHLITLKLKAKYPAESPDYFVDFPVPFCASWTPQSSLISIYSQFLAAIESLKAFWDVMDEIDEKTWVLEPEKPPRSATARRIALGNNVSINIEVDPRHPTMLPECFFLGADHVVKPLGIKLSRNIHLWDPENSVLQNLKDVLEIDFPARAILEKSDFTMDCGICYAYQLDGTIPDQVCDNSQCGQPFHQICLYEWLRGLLTSRQSFNIIFGECPYCSKPITLKMSGRKH

Test in all cases: cryo-EM structure
Data set [1] has as its target FA Core complex (human | human (endogenous in HEK-293F)) (UniProt O15360).
The data set “cryo-EM structure” concerns the molecule itself.
The target of another data set is T1, FANCI (human, UniProt Q9NVI1 1-1328).
T1 sequence: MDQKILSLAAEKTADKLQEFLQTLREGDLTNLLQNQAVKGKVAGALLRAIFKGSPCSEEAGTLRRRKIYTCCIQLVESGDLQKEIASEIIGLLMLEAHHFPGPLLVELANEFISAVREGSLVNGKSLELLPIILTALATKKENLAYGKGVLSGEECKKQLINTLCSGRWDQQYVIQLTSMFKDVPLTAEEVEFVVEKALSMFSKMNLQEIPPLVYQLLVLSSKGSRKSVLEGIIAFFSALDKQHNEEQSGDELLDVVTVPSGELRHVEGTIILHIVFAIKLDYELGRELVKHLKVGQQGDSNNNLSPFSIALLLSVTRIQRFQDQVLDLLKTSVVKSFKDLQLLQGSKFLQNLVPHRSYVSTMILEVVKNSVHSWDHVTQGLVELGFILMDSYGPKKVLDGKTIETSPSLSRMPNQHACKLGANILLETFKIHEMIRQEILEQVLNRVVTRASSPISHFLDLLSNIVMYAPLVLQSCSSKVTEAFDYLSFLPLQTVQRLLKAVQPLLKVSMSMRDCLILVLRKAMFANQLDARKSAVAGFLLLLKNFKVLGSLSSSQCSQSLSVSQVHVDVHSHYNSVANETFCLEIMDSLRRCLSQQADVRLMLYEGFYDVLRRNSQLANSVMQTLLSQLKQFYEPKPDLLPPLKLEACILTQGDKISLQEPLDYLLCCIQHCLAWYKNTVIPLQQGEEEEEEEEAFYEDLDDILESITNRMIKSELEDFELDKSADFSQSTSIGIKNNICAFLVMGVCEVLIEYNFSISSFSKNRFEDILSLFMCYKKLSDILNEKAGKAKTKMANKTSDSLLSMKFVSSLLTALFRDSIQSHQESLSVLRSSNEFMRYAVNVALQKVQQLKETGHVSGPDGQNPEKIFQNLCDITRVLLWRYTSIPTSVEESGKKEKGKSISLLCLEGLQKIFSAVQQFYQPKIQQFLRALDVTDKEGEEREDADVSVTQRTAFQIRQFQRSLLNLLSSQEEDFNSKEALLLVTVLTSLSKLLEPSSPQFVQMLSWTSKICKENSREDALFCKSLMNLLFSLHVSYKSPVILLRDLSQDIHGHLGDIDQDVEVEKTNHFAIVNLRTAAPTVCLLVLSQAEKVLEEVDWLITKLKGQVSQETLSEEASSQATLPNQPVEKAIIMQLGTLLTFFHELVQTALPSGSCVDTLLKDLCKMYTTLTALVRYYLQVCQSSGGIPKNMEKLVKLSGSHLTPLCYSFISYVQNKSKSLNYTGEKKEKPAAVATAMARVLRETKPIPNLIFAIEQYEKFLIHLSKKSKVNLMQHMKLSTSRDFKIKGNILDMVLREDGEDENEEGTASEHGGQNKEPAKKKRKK

The data set “FANCL” has as its target B3.

Molecule “FANCI-FANCD2 (ID) complex (from UniProt Q9NVI1 1-1328; Q9BXW9 1-1451)” registered a percent of Core particles with bound ID in data set [1] of 63%.

B1: FANCB-FAAP100 heterodimer (complex, human)
chain 1: MTSKQAMSSNEQERLLCYNGEVLVFQLSKGNFADKEPTKTPILHVRRMVFDRGTKVFVQKSTGFFTIKEENSHLKIMCCNCVSDFRTGINLPYIVIEKNKKNNVFEYFLLILHSTNKFEMRLSFKLGYEMKDGLRVLNGPLILWRHVKAFFFISSQTGKVVSVSGNFSSIQWAGEIENLGMVLLGLKECCLSEEECTQEPSKSDYAIWNTKFCVYSLESQEVLSDIYIIPPAYSSVVTYVHICATEIIKNQLRISLIALTRKNQLISFQNGTPKNVCQLPFGDPCAVQLMDSGGGNLFFVVSFISNNACAVWKESFQVAAKWEKLSLVLIDDFIGSGTEQVLLLFKDSLNSDCLTSFKITDLGKINYSSEPSDCNEDDLFEDKQENRYLVVPPLETGLKVCFSSFRELRQHLLLKEKIISKSYKALINLVQGKDDNTSSAEEKECLVPLCGEEENSVHILDEKLSDNFQDSEQLVEKIWYRVIDDSLVVGVKTTSSLKLSLNDVTLSLLMDQAHDSRFRLLKCQNRVIKLSTNPFPAPYLMPCEIGLEAKRVTLTPDSKKEESFVCEHPSKKECVQIITAVTSLSPLLTFSKFCCTVLLQIMERESGNCPKDRYVVCGRVFLSLEDLSTGKYLLTFPKKKPIEHMEDLFALLAAFHKSCFQITSPGYALNSMKVWLLEHMKCEIIKEFPEVYFCERPGSFYGTLFTWKQRTPFEGILIIYSRNQTVMFQCLHNLIRILPINCFLKNLKSGSENFLIDNMAFTLEKELVTLSSLSSAIAKHESNFMQRCEVSKGKSSVVAAALSDRRENIHPYRKELQREKKKMLQTNLKVSGALYREITLKVAEVQLKSDFAAQKLSNL
chain 2: MAGAAPRVRYLAGFCCPLGGLAAGKPRVLCHEAEVFLSTGSELVYVYDQEGGLLTAAFRFPDQVWHLELLAPRRLLYALCARRGLYCLSLDHPGRSRSTSQDDRDSEDGDQPSPVIPVDPDACILPDAALCAFTLLDSVLVTLVQGPARWKMQLFEQPCPGEDPRPGGQIGEVELSSYTPPAGVPGKPAAPHFLPVLCSVSPSGSRVPHDLLGGSGGFTLEDALFGLLFGADATLLQSPVVLCGLPDGQLCCVILKALVTSRSAPGDPNALVKILHHLEEPVIFIGALKTEPQAAEAAENFLPDEDVHCDCLVAFGHHGRMLAIKASWDESGKLVPELREYCLPGPVLCAACGGGGRVYHSTPSDLCVVDLSRGSTPLGPEQPEEGPGGLPPMLCPASLNICSVVSLSASPRTHEGGTKLLALSAKGRLMTCSLDLDSEMPGPARMTTESAGQKIKELLSGIGNISERVSFLKKAVDQRNKALTSLNEAMNVSCALLSSGTGPRPISCTTSTTWSRLQTQDVLMATCVLENSSSFSLDQGWTLCIQVLTSSCALDLDSACSAITYTIPVDQLGPGARREVTLPLGPGENGGLDLPVTVSCTLFYSLREVVGGALAPSDSEDPFLDECPSDVLPEQEGVCLPLSRHTVDMLQCLRFPGLAPPHTRAPSPLGPTRDPVATFLETCREPGSQPAGPASLRAEYLPPSVASIKVSAELLRAALKDGHSGVPLCCATLQWLLAENAAVDVVRARALSSIQGVAPDGANVHLIVREVAMTDLCPAGPIQAVEIQVESSSLADICRAHHAVVGRMQTMVTEQATQGSSAPDLRVQYLRQIHANHETLLREVQTLRDRLCTEDEASSCATAQRLLQVYRQLRHPSLILL
The term stoichiometry N denotes the number of molecules, sites or subunits per partner or assembly. B1: in “cryo-EM structure”, the “stoichiometry N” value turned out to be 2.

B2: FANCA (natural protein, human, UniProt O15360-1 1-1455, looked up)
chain: MSDSWVPNSASGQDPGGRRRAWAELLAGRVKREKYNPERAQKLKESAVRLLRSHQDLNALLLEVEGPLCKKLSLSKVIDCDSSEAYANHSSSFIGSALQDQASRLGVPVGILSAGMVASSVGQICTAPAETSHPVLLTVEQRKKLSSLLEFAQYLLAHSMFSRLSFCQELWKIQSSLLLEAVWHLHVQGIVSLQELLESHPDMHAVGSWLFRNLCCLCEQMEASCQHADVARAMLSDFVQMFVLRGFQKNSDLRRTVEPEKMPQVTVDVLQRMLIFALDALAAGVQEESSTHKIVRCWFGVFSGHTLGSVISTDPLKRFFSHTLTQILTHSPVLKASDAVQMQREWSFARTHPLLTSLYRRLFVMLSAEELVGHLQEVLETQEVHWQRVLSFVSALVVCFPEAQQLLEDWVARLMAQAFESCQLDSMVTAFLVVRQAALEGPSAFLSYADWFKASFGSTRGYHGCSKKALVFLFTFLSELVPFESPRYLQVHILHPPLVPGKYRSLLTDYISLAKTRLADLKVSIENMGLYEDLSSAGDITEPHSQALQDVEKAIMVFEHTGNIPVTVMEASIFRRPYYVSHFLPALLTPRVLPKVPDSRVAFIESLKRADKIPPSLYSTYCQACSAAEEKPEDAALGVRAEPNSAEEPLGQLTAALGELRASMTDPSQRDVISAQVAVISERLRAVLGHNEDDSSVEISKIQLSINTPRLEPREHMAVDLLLTSFCQNLMAASSVAPPERQGPWAALFVRTMCGRVLPAVLTRLCQLLRHQGPSLSAPHVLGLAALAVHLGESRSALPEVDVGPPAPGAGLPVPALFDSLLTCRTRDSLFFCLKFCTAAISYSLCKFSSQSRDTLCSCLSPGLIKKFQFLMFRLFSEARQPLSEEDVASLSWRPLHLPSADWQRAALSLWTHRTFREVLKEEDVHLTYQDWLHLELEIQPEADALSDTERQDFHQWAIHEHFLPESSASGGCDGDLQAACTILVNALMDFHQSSRSYDHSENSDLVFGGRTGNEDIISRLQEMVADLELQQDLIVPLGHTPSQEHFLFEIFRRRLQALTSGWSVAASLQRQRELLMYKRILLRLPSSVLCGSSFQAEQPITARCEQFFHLVNSEMRNFCSHGGALTQDITAHFFRGLLNACLRSRDPSLMVDFILAKCQTKCPLILTSALVWWPSLEPVLLCRWRRHCQSPLPRELQKLQEGRQFASDFLSPEAASPAPNPDWLSAAALHFAIQQVREENIRKQLKKLDCEREELLVFLFFFSLMGLLSSHLTSNSTTDLPKAFHVCAAILECLEKRKISWLALFQLTESDLRLGRLLLRVAPDQHTRLLPFAFYSLLSYFHEDAAIREEAFLHVAVDMYLKLVQLFVAGDTSTVSPPAGRSLELKGQGNPVELITKARLFLLQLIPRCPKKSFSHVAELLADRGDCDPEVSAALQSRQQAAPDADLSQEPHLF
As to B2, the “stoichiometry N” value in “cryo-EM structure” was 2. With B3, in the data set with FANCI, the binding result was “binds”.

B4: UBE2T (enzyme, human)
chain: MQRASRLKRELHMLATEPPPGITCWQDKDQMDDLRAQILGGANTPYEKGVFKLEVIIPERYPFEPPQIRFLTPIYHPNIDSAGRICLDVLKLPPKGAWRPSLNIATVLTSIQLLMSEPNPDDPLMADISSEFKYNKPAFLKNARQWTEKHARQKQKADEEEMLDNLPEAGDSRVHNSTQKRKASQLVGIEKKFHPDV
As for B4, the binding result with FANCI and with FANCL was “binds” in each case.
